Molecular target: Aβ42 fibrils (fibrillar Aβ(M1-42))
Experiment: SPR

Kd: 0.04 µM
Substance: Brichos domain from proSP-C (lung surfactant C precursor protein) (domain or fragment)

Reference: article PMC4595974
